From patent US12428492B2, “Chimeric antigen receptors that bind to prostate specific membrane antigen” (Albert-Ludwigs-Universitaet Freiburg, priority 2019, dated 2025)

B1: A5: single-chain variable fragment generated by phage display from mAb 3/A12; SEQ ID NO:42 (protein, listed as Mus musculus)
scFv: DVKLVESGGGLVKPGESLKLSCIASGFTFSDYYMYWVRQTPEKRLEWVAIISDGGYYTYYSDIIKGRFTISRDNAKNNLYLQMSSLKSEDTAMYYCTRGFPLLRHGAMDYWGLGTSVTVSSGGGGSGGGGSGGGGSDIQMTQSPKFMSTSVGDRVSVTCKASQNVDTNVAWYQQKPGQSPKALIYSASYRYSDVPDRFTGSESGTDFTLTISNVQSEDLAEYFCQQYDSYPYTFGGGTKLEIK
modifications: murine scFv A5
B2: A5-based CAR: 2nd generation anti-PSMA CAR: scFv A5, Fc IgG1 hinge, transmembrane domain, CD28 costimulatory domain, CD3ζ; SEQ ID NO:39 (protein)
chain: MDFQVQIFSFLLISASVIMSRDVKLVESGGGLVKPGESLKLSCIASGFTFSDYYMYWVRQTPEKRLEWVAIISDGGYYTYYSDIIKGRFTISRDNAKNNLYLQMSSLKSEDTAMYYCTRGFPLLRHGAMDYWGLGTSVTVSSGGGGSGGGGSGGGGSDIQMTQSPKFMSTSVGDRVSVTCKASQNVDTNVAWYQQKPGQSPKALIYSASYRYSDVPDRFTGSESGTDFTLTISNVQSEDLAEYFCQQYDSYPYTFGGGTKLEIKSDPAEPKSPDKTHTCPPCPAPPVAGPSVFLFPPKPKDTLMIARTPEVTCVVVDVSHEDPEVKFNWYVDGVEVHNAKTKPREEQYNSTYRVVSVLTVLHQDWLNGKEYKCKVSNKALPAPIEKTISKAKGQPREPQVYTLPPSRDELTKNQVSLTCLVKGFYPSDIAVEWESNGQPENNYKTTPPVLDSDGSFFLYSKLTVDKSRWQQGNVFSCSVMHEALHNHYTQKSLSLSPGKKDPKFWVLVVVGGVLACYSLLVTVAFIIFWVRSKRSRLLHSDYMNMTPRRPGPTRKHYQAYAAARDFAAYRSLRVKFSRSADAPAYQQGQNQLYNELNLGRREEYDVLDKRRGRDPEMGGKPRRKNPQEGLYNELQKDKMAEAYSEIGMKGERRRGKGHDGLYQGLSTATKDTYDALHMQALPPR
modifications: A5CAR28

What was measured:
PSMA-expressing cells = PSMA-expressing cells (Homo sapiens, UniProt Q04609); conditions: cited from earlier work
PSMA-expressing cells, sequence (Q04609 whole entry): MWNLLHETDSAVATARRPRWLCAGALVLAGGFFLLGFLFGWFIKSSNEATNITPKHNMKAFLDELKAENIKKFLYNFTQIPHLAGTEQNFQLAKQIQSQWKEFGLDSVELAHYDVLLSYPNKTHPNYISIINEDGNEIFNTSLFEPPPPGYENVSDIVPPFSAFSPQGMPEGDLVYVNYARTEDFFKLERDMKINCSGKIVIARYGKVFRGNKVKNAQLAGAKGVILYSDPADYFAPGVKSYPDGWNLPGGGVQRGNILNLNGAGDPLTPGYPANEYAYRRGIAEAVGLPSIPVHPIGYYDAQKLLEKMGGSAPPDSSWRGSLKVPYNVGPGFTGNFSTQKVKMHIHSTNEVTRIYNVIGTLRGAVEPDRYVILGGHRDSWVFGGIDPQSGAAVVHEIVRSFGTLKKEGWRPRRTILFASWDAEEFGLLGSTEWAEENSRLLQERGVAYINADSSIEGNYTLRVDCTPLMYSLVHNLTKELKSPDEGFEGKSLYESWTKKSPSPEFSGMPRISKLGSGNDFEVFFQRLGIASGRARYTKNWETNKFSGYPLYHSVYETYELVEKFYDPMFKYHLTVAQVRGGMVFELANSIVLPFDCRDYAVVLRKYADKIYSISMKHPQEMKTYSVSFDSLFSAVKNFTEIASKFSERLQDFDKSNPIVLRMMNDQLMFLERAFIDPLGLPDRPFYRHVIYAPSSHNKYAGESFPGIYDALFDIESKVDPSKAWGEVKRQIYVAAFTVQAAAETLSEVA

[1] = test system: PSMA positive C4-2 and LNCaP tumor cells; assay: Antigen-specific activation (CD69) of CAR expressing Jurkat cells by PSMA positive tumor cells; type: cell-based
Description: Panel (C) presents the antigen-specific-activation profile, CAR expressing Jurkat cells were stimulated for 24 h at an 1:1 effector-to-target ratio with either PSMA positive, PD-L1 negative C4-2 tumor cells (PSMA+/PDL1−), or PSMA positive, PD-L1 positive LNCaP tumor cells (PSMA+/PDL1+). As a negative control, CAR cells were co-cultured with PSMA negative DU145 tumor cells (PSMA−). Following 24 h stimulation, cells were harvested and activation profile was assessed by evaluating the percentage of cells that are positive for the activation marker CD69. Statistically significant differences are indicated by ****(P<0.001).
Panel (D) depicts the characterization of employed prostate cancer cell lines. The extent of PSMA target antigen expression (left) and PD-L1 (CD274) expression (right) was assessed on C4-2, LNCaP and DU145 prostate cell lines. For flow cytometric analysis, cells were either stained with 3/F11 1 antibody (anti-PSMA) or an anti-CD274 antibody. UT, untransduced T cells; PD-L1, Programmed cell death ligand 1; PSMA; prostate specific membrane antigen. As shown in panel D (left), both C4-2 and LNCaP tumor cells express the PSMA antigen while the DU145 is negative for the PSMA antigen. […]
The antigen-specific activation of transduced Jurkat T cells was measured by monitoring the expression of the activation marker CD69 upon antigen stimulation FIG. 9C. […]

Row | Molecule | Kd (PSMA-expressing cells) [nM] | CD69-positive cells ([1]; 24 h, 1:1 effector-to-target ratio, C4-2 or LNCaP) | activation of Jurkat cells upon antigen-specific sensitization ([1]; CD69)
1 | B1 | ~33 | – | –
2 | B2 | – | about 70% | massive activation
